Laboratory results as given in US20220119534A1 (DRAGONFLY THERAPEUTICS, published 2022).
Values belong to the binder of their own block, whether it stands above or below them.

Legend:
[1] = molecular target: T1, human CLEC12A expressed on cells (human, UniProt Q5QGZ9 1-265); assay: flow cytometry on PL-21 cells, fold over background
T1 construct: Transduced isogenic cells or endogenous expression on AML cells; also called RMA-hCLEC12A; Ba/F3-hCLEC12A
T1 sequence: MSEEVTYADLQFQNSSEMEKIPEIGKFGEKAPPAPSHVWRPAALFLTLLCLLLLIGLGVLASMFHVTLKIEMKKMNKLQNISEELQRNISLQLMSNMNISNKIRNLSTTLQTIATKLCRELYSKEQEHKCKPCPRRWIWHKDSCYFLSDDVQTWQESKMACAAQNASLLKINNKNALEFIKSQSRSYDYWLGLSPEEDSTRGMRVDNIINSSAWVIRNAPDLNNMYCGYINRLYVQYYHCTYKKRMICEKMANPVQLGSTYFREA
Description: (§1) The cells were then incubated with a fluorophore conjugated anti-human IgG secondary antibody and were analyzed by flow cytometry. The mean fluorescence intensity (MFI) values were normalized to secondary antibody only controls to obtain fold over background (FOB) values.
100,000 cells were seeded per well into a 96-well plate for FACS staining. Cells were washed with PBS. Cells were incubated in a 1:2000 dilution of live/dead dye in PBS for 15 minutes, then washed with FACS buffer. TriNKETs or mAbs were diluted into FACS buffer, and 50 μl containing diluted TriNKET or mAb was added to cells. Cells were incubated on ice for 20 minutes. After the incubation, cells were washed with FACS buffer. Anti-human IgG-Fc secondary antibody was diluted into FACS buffer, and 50 μl was added per well for detection of the bound TriNKETs or mAbs. Cells were incubated for 20 minutes on ice, then washed with FACS buffer. 50 μl of fixation buffer was added to each well, and cells were incubated for 10 minutes at room temperature. […] Within the live gate, the mean fluorescence intensity (MFI) of each sample and the secondary-only control was calculated. Fold-over-background (FOB) was calculated as the ratio of test article MFI over secondary-only background MFI. […]

[2] = molecular target: T1, human CLEC12A expressed on cells; assay: flow cytometry on HL-60 cells, fold over background
Description: as §1
(§2) 100,000 cells were seeded per well into a 96-well plate for FACS staining. Cells were washed with PBS. Cells were incubated in a 1:2000 dilution of live/dead dye in PBS for 15 minutes, then washed with FACS buffer. TriNKETs or mAbs were diluted into FACS buffer, and 50 μl containing diluted TriNKET or mAb was added to cells. Cells were incubated on ice for 20 minutes. After the incubation, cells were washed with FACS buffer. Anti-human IgG-Fc secondary antibody was diluted into FACS buffer, and 50 μl was added per well for detection of the bound TriNKETs or mAbs. Cells were incubated for 20 minutes on ice, then washed with FACS buffer. 50 μl of fixation buffer was added to each well, and cells were incubated for 10 minutes at room temperature. Cells were washed with FACS buffer and resuspended in FACS buffer for analysis with BD FACS Celesta SN #H66034400085, or BD FACS Celesta SN #H66034400160. Cells of interest were identified using FSC vs. SSC plot, and an appropriately shaped gate was drawn around the cells. Within the gated cells, doublet cells were removed by viewing FSC-H vs FSC-A plot. Within the single cell population, live cells were gated. Within the live gate, the mean fluorescence intensity (MFI) of each sample and the secondary-only control was calculated. Fold-over-background (FOB) was calculated as the ratio of test article MFI over secondary-only background MFI. Data were fit to a four-parameter non-linear regression curve using GraphPad Prism 7.0.

[3] = molecular target: T1, human CLEC12A expressed on cells; assay: flow cytometry on Ba/F3-hCLEC12A cells, fold over background
Description: as §1, §2

EC50 (read off the curve) [1]: ~2 nM
B1: AB0300 (other, name in EU numbering)
chain: QLQLQESGPGLVKPSETLSLTCTVSGFSLTNYGLHWIRQPPGKCLEWIGVIWSGGKTDYNPSLKSRVTISKDTSKNQFSLKLSSVQAADTAVYYCAKYDYDDSLDYWGQGTLVTVSSGGGGSGGGGSGGGGSGGGGSDIQMTQSPSSLSASVGDRVTITCHASQNINFWLSWYQQKPGKAPKLLIYEASNLHTGVPSRFSGSGSGTRFTLTISSLQPEDIATYYCQQSHSYPLTFGCGTKLEIKGSDKTHTCPPCPAPEAAGGPSVFLFPPKPKDTLMISRTPEVTCVVVDVSHEDPEVKFNWYVDGVEVHNAKTKPREEQYNSTYRVVSVLTVLHQDWLNGKEYKCKVSNKALGAPIEKTISKAKGQPREPRVYTLPPCRDELTKNQVSLTCLVKGFYPSDIAVEWESNGQPENNYKTTPPVLVSDGSFTLYSKLTVDKSRWQQGNVFSCSVMHEALHNHYTQKSLSLSPG
heavy: EVQLVESGGGLVKPGGSLRLSCAASGFTFSSYSMNWVRQAPGKGLEWVSSISSSSSYIYYADSVKGRFTISRDNAKNSLYLQMNSLRAEDTAVYYCARGAPIGAAAGWFDPWGQGTLVTVSSASTKGPSVFPLAPSSKSTSGGTAALGCLVKDYFPEPVTVSWNSGALTSGVHTFPAVLQSSGLYSLSSVVTVPSSSLGTQTYICNVNHKPSNTKVDKKVEPKSCDKTHTCPPCPAPEAAGGPSVFLFPPKPKDTLMISRTPEVTCVVVDVSHEDPEVKFNWYVDGVEVHNAKTKPREEQYNSTYRVVSVLTVLHQDWLNGKEYKCKVSNKALGAPIEKTISKAKGQPREPQVCTLPPSRDELTENQVSLTCLVKGFYPSDIAVEWESNGQPENNYKTTPPVLDSDGSFFLYSWLTVDKSRWQQGNVFSCSVMHEALHNHYTQKSLSLSPG
light: DIQMTQSPSSVSASVGDRVTITCRASQGISSWLAWYQQKPGKAPKLLIYAASSLQSGVPSRFSGSGSGTDFTLTISSLQPEDFATYYCQQGVSFPRTFGGGTKVEIKRTVAAPSVFIFPPSDEQLKSGTASVVCLLNNFYPREAKVQWKVDNALQSGNSQESVTEQDSKDSTYSLSSTLTLSKADYEKHKVYACEVTHQGLSSPVTKSFNRGEC
notes: AB0237 with LALAPG in both Fc chains

EC50 (read off the curve) [2]: ~0.1 nM
EC50 (read off the curve) [3]: ~0.6 nM
B2: AB0305 (antibody, IgG1, V domains shown)
VH: QLQLQESGPGLVKPSETLSLTCTVSGFSLTNYGLHWIRQPPGKGLEWIGVIWVGGATDYNPSLKSRVTISVDTSKNQFSLKLSSVQAADTAVYYCAKGDYGDTLDYWGQGTLVTVSS
VL: DIQMTQSPSSLSASVGDRVTITCHASQNINFWLSWYQQKPGKAPKLLIYEASNLHTGVPSRFSGSGSGTDFTLTISSLQPEDFATYYCQQSHSYPLTFGSGTKLEIK
notes: hIgG1 mAb; also called Humanized 1739 anti-CLEC12A mAb; parental mAb of AB0089

EC50 (read off the curve) [2]: ~0.5 nM
EC50 (read off the curve) [3]: ~0.8 nM
B3: AB0306 (antibody, IgG1, V domains shown)
VH: EVQLVESGGGVVQPGGSLRLSCAASGFTFNAFGMHWVRQAPGKGLEWVAFISSGSTSIYYANTVKGRFTISRDNSKNTLYLQMNSLRAEDTAVYYCARDGYPTGGAMDYWGQGTSVTVSS
VL: DIQMTQSPSSLSASVGDRVTITCKASQDIYNYLSWFQQKPGKAPKPLIYRANILVSGVPSRFSGSGSGQDYTFTISSLQPEDIATYYCLQFDAFPFTFGSGTKLEIK
notes: hIgG1 mAb; also called Humanized 1797 anti-CLEC12A mAb; parental mAb of AB0192
